Data from article PMC3858272, “Construction and Application of Elastin Like Polypeptide Containing IL-4 Receptor Targeting Peptide” (PLoS ONE, 2013).

T1: IL-4Rα (CD124) (UniProt P24394 26-232)
T1 construct: interleukin-4 receptor alpha chain (CD124), recombinant protein bought from Sino Biological; No catalogue number is printed; also called IL-4 receptor; source: bought: Sino Biological
T1 sequence (looked up): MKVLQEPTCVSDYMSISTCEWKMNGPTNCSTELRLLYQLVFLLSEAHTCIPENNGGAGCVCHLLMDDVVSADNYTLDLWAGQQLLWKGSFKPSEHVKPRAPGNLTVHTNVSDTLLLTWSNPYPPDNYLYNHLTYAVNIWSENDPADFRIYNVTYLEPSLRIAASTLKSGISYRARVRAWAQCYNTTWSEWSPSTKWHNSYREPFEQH

T2: IL-4 receptor on H226 and MDA-MB-231 cancer cells (human (endogenous in H226 and …, UniProt P24394 26-825))
T2 construct: interleukin-4 receptor as expressed on the surface of human cancer cell lines; On cells the alpha chain may stand with other receptor chains; source: endogenous, on H226 and MDA-MB-231 cells
T2 sequence (looked up): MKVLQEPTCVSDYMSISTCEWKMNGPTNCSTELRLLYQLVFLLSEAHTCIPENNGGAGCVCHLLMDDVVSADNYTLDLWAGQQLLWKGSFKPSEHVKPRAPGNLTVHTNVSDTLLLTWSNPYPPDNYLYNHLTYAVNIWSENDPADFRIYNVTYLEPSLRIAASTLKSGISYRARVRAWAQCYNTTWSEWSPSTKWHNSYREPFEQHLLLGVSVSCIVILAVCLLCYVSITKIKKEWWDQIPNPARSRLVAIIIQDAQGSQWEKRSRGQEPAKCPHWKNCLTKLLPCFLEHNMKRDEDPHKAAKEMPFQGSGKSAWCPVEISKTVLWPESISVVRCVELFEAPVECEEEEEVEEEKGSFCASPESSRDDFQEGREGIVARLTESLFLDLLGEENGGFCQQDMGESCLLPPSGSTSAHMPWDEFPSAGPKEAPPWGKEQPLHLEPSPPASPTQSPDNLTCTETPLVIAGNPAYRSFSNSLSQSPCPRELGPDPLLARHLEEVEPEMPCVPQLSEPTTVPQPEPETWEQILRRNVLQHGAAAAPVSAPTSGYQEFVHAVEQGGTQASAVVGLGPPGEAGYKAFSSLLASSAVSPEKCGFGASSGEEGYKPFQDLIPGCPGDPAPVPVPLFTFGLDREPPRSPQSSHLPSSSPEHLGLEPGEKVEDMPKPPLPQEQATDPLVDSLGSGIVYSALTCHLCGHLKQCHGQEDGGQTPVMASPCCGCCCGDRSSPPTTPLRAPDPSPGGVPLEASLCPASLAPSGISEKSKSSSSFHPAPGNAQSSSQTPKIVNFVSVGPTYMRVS

B1: AP1 peptide (peptide)
peptide: CRKRLDRN
notes: peptide found earlier by phage display screening, termed AP1; also called free AP1 peptide
B2: [AP1-V12]6 polymer, SGPG[VGRKRLDRNG(VGVPG)12]6WPC (designed binder)
chain: SGPGVGRKRLDRNGVGVPGVGVPGVGVPGVGVPGVGVPGVGVPGVGVPGVGVPGVGVPGVGVPGVGVPGVGVPGVGRKRLDRNGVGVPGVGVPGVGVPGVGVPGVGVPGVGVPGVGVPGVGVPGVGVPGVGVPGVGVPGVGVPGVGRKRLDRNGVGVPGVGVPGVGVPGVGVPGVGVPGVGVPGVGVPGVGVPGVGVPGVGVPGVGVPGVGVPGVGRKRLDRNGVGVPGVGVPGVGVPGVGVPGVGVPGVGVPGVGVPGVGVPGVGVPGVGVPGVGVPGVGVPGVGRKRLDRNGVGVPGVGVPGVGVPGVGVPGVGVPGVGVPGVGVPGVGVPGVGVPGVGVPGVGVPGVGVPGVGRKRLDRNGVGVPGVGVPGVGVPGVGVPGVGVPGVGVPGVGVPGVGVPGVGVPGVGVPGVGVPGVGVPGWPC
notes: The vector's insert begins with an ATG; also called [AP1-V12]6 protein; targeted [AP1-V12]6 polymer; source: E. coli BL21 (DE3), purified (four rounds of inverse transition cycling)
B3: Alexa 488-labeled [AP1-V12]6 (designed binder)
chain: B2 chain
modifications: Alexa Fluor 488-C5 maleimide on the C-terminal Cys residue
notes: as m1; The labelled form of m1, used on cells (flow cytometry, confocal microscopy); also called Alexa-labeled [AP1-V12]6; targeted [AP1-V12]6 polymer; source: E. coli BL21 (DE3), purified (four rounds of inverse transition cycling), then labelled

Experiments:
IL-4Rα (CD124) = biological target: T1, IL-4Rα (CD124); test: SPR; IL-4Rα immobilised by amine coupling on a carboxymethyl dextran chip (2000±400 RU); AP1 peptide 3.125 to 50 µM, [AP1-V12]6 125 nM to 1 µM, [V14]6 1 µM flowed for 3 min at 25 µL/min; 25°C; kinetic fits with Scrubber 2; conditions: both partners purified
[1] = biological target: T2, IL-4 receptor on H226 and MDA-MB-231 …; test: flow cytometry on cells; 10 µM Alexa 488-labelled polymer or peptide, 1 h at 4°C, on H226 and MDA-MB-231 cells (IL-4R highly expressed) after blocking with 2% BSA; H460 cells as IL-4R negative control; conditions: one partner purified

Row | Binder | koff (IL-4Rα (CD124)) | kon (IL-4Rα (CD124)) | fold cell attachment, H226 cells over H460 cells [1] | fold cell attachment, MDA-MB-231 cells over H460 cells [1]
1 | B1 | 0.17 s⁻¹ | 35 M⁻¹ s⁻¹ | – | –
2 | B2 | 0.00125 s⁻¹ | 5810 M⁻¹ s⁻¹ | – | –
3 | B3 | – | – | 5.9 ± 1.6 fold | 5.6 ± 1.3 fold
